Data on one substance can be found in paper PMC11560936.

Common to all, as to experiment: ITC
For assay [1], the target named is Penaeus monodon Rab7 Q67L mutant (PmRab7-Q67L) (Penaeus monodon) (UniProt Q00P14).
The target in assay [2] is Penaeus monodon Rab7 L129F mutant (PmRab7-L129F) (Penaeus monodon) (UniProt Q00P14).
The target in assay [3] is Penaeus monodon Rab7 wild type (PmRab7-WT) (Penaeus monodon) (UniProt Q00P14).
In assay [4] the target is Penaeus monodon Rab7 T22N mutant (PmRab7-T22N) (Penaeus monodon) (UniProt Q00P14).
The target in assay [5] is Penaeus monodon Rab7 wild type (PmRab7-WT) (Penaeus monodon) (UniProt Q00P14). The source holds these as a separate data set.
For assay [6] the target is unchanged. The source holds these as a separate data set.
Assay [7] shares this target. The source holds these as a separate data set.
Assay [8] has the same target. This is another data set of the same source.

Where two headings read alike, the source gives them in different places.

Regarding “White spot syndrome virus envelope protein VP28 with His6 tag (VP28-His6) (natural protein)”, the Kd stood at 1990 nM in assay [1]; 128 nM in assay [2]; 22.5 nM in assay [3]; 334 nM in assay [4]; 352 nM in assay [5]; 1920 nM in assay [6]. The figures for the Kd in assay [7] and in assay [8] were 826 nM and 924 nM, respectively. Moreover, the dH in assay [1] was -33 kcal/mol; in assay [2] it was -25.7 kcal/mol; in assay [3], -22.1 kcal/mol; in assay [4] it was -20 kcal/mol; in assay [5] it was -7.23 kcal/mol; in assay [6], -20.2 kcal/mol. The dH in assay [7] was -17 kcal/mol; in assay [8], -15.4 kcal/mol. The stoichiometry N is 0.582 VP28:Rab7 in assay [1]; 0.519 VP28:Rab7 in assay [2]; 0.543 VP28:Rab7 in assay [3]; 0.625 VP28:Rab7 in assay [4]; 0.682 VP28:Rab7 in assay [5]; 0.703 VP28:Rab7 in assay [6]. The figures for the stoichiometry N in assay [7] and in assay [8] were 0.738 VP28:Rab7 and 0.795 VP28:Rab7, respectively.
